Kd and IC50 data for 34 sequences are collected here from the Immune Epitope Database (IEDB).

Assay [1] deals with HLA-A*69:01. Briefly: IEDB peptide-MHC binding, purified MHC/direct/fluorescence; filed as Kd, often an IC50 or EC50 that approximates it; ≥ and ≤ were set here for values at or beyond the usual limits of such assays.
For assay [2], the target named is HLA-A*02:12. Described as above. The following applies: source organism: Ravn virus - Ravn, Kenya, 1987.
The target in assay [3] is HLA-A*02:01. The description is as above.
Assay [4] concerns the target HLA-A*03:01. The assay is described as above.
The target of assay [5] is HLA-A*11:01. The assay is described as above.
Assay [6] addresses HLA-A*31:01. Briefly: IEDB peptide-MHC binding, purified MHC/competitive/fluorescence; filed as Kd, often an IC50 or EC50 that approximates it; ≥ and ≤ were set here for values at or beyond the usual limits of such assays.
Assay [7] addresses HLA-A*31:01. Nature of the assay: IEDB peptide-MHC binding, purified MHC/competitive/radioactivity; filed as Kd, often an IC50 or EC50 that approximates it; ≥ and ≤ were set here for values at or beyond the usual limits of such assays. The settings on record: source organism: Dengue virus 2 Jamaica/1409/1983.
Assay [8] has as its target HLA-B*57:01. The description is as above.
Assay [9] deals with HLA-B*58:01. The assay is described as above.
In assay [10] the target is HLA-A*68:01. Described as above. The settings on record: source organism: Dengue virus 2 Jamaica/1409/1983.
Assay [11] has as its target HLA-A*02:01. Nature of the assay: IEDB peptide-MHC binding, purified MHC/competitive/fluorescence; ≥ and ≤ were set here for values at or beyond the usual limits of such assays. The settings on record: source organism: Zaire ebolavirus.
Assay [12] addresses HLA-A*11:01. Described as above.
Assay [13] addresses HLA-B*53:01. Briefly: IEDB peptide-MHC binding, purified MHC/competitive/radioactivity; filed as Kd, often an IC50 or EC50 that approximates it; ≥ and ≤ were set here for values at or beyond the usual limits of such assays. The following applies: source organism: Dengue virus 2 Jamaica/1409/1983.
In assay [14] the target is HLA-A*68:02. Briefly: IEDB peptide-MHC binding, purified MHC/competitive/fluorescence; filed as Kd, often an IC50 or EC50 that approximates it; ≥ and ≤ were set here for values at or beyond the usual limits of such assays. The settings on record: source organism: Toxoplasma gondii.
Assay [15] addresses HLA-B*57:01. Nature of the assay: IEDB peptide-MHC binding, purified MHC/direct/fluorescence; filed as Kd, often an IC50 or EC50 that approximates it; ≥ and ≤ were set here for values at or beyond the usual limits of such assays.
The target in assay [16] is HLA-B*58:01. Described as above.
Assay [17] deals with HLA-B*15:17. The description is as above.
Assay [18] deals with HLA-A*32:01. Briefly: IEDB peptide-MHC binding, purified MHC/competitive/radioactivity; filed as Kd, often an IC50 or EC50 that approximates it; ≥ and ≤ were set here for values at or beyond the usual limits of such assays. The following applies: source organism: Dengue virus 2 Peru/IQT2913/1996.
Assay [19] deals with HLA-B*27:05. Briefly: IEDB peptide-MHC binding, purified MHC/direct/fluorescence; filed as Kd, often an IC50 or EC50 that approximates it; ≥ and ≤ were set here for values at or beyond the usual limits of such assays.
The target of assay [20] is HLA-B*46:01. Described as above. The settings on record: source organism: Giardia lamblia ATCC 50803.
Assay [21] deals with HLA-B*18:01. Described as above.
Assay [22] concerns the target HLA-A*31:01. Described as above.
The target of assay [23] is HLA-B*07:02. Described as above.
Assay [24] addresses HLA-B*15:01. Described as above. The settings on record: source organism: Giardia lamblia ATCC 50803.
Assay [25] addresses HLA-A*68:02. The description is as above.
Assay [26] concerns the target HLA-B*48:01. Described as above.
Assay [27] addresses HLA-B*40:01. The assay is described as above.
Assay [28] deals with HLA-A*01:01. The assay is described as above.
Assay [29] deals with HLA-A*24:02. Briefly: IEDB peptide-MHC binding, purified MHC/competitive/radioactivity; filed as Kd, often an IC50 or EC50 that approximates it; ≥ and ≤ were set here for values at or beyond the usual limits of such assays. The settings on record: source organism: Dengue virus 2 Jamaica/1409/1983.
The target of assay [30] is HLA-A*23:01. The description is as above. The following applies: source organism: Dengue virus 2 Jamaica/1409/1983.
Assay [31] deals with HLA-B*44:02. Nature of the assay: IEDB peptide-MHC binding, purified MHC/direct/fluorescence; filed as Kd, often an IC50 or EC50 that approximates it; ≥ and ≤ were set here for values at or beyond the usual limits of such assays. The settings on record: source organism: Camelpox virus M-96.
[32] abbreviates: source organism: Marburg virus - Musoke, Kenya, 1980.
The mark [33] stands for this setting: source organism: Vibrio vulnificus.
Setting [34] is: source organism: Dengue virus 2 Jamaica/1409/1983.
The mark [35] stands for this setting: source organism: Zaire ebolavirus.
Setting [36] is: source organism: Sudan ebolavirus.
Setting [37] is: source organism: Dengue virus 1 Brazil/97-11/1997.
The mark [38] stands for this setting: source organism: Coxiella burnetii.
[39] abbreviates: source organism: Salmonella enterica.
Setting [40] is: source organism: Giardia lamblia ATCC 50803.
The mark [41] stands for this setting: source organism: Mammarenavirus juninense.
The mark [42] stands for this setting: source organism: Yellow fever virus 1899/81.
Where [43] appears, read: source organism: Dengue virus 2 Peru/IQT2913/1996.
[44] abbreviates: source organism: Dengue virus 1 Singapore/S275/1990.
[45] abbreviates: source organism: Mammarenavirus lassaense.
The mark [46] stands for this setting: source organism: Lassa virus GA391.
The mark [47] stands for this setting: source organism: Dengue virus 4 Philippines/H241/1956.
Setting [48] is: source organism: Rickettsia massiliae.
Where [49] appears, read: source organism: West Nile virus.
Where [50] appears, read: source organism: Rickettsia prowazekii.
[51] abbreviates: source organism: Camelpox virus M-96.

Turning to ALKEAIEMV, the Kd (commonly the concentration at which binding is half-saturated) worked out at 1800 nM in assay [1] (setting [32]), 4 nM in [2] and 127 nM in assay [3] (setting [32]).

Consider ASILSRMAY, for which the Kd in assay [4] (setting [33]) was 974 nM; in [5] (setting [33]), 7.4 nM; in assay [6] (source organism: Vibrio vulnificus YJ016) it was at least 20000 nM.

Consider ASSMVNGVVR, for which the Kd in assay [7] is at least 44100 nM; in assay [8] (setting [34]), 1400 nM; in [9] (setting [34]), 2060 nM; in assay [10] it was 47.7 nM.

As for AVSSGKNIK, the IC50 (usually the concentration that gives 50% inhibition) in assay [11] was at least 164000 nM; in assay [12] (setting [35]), 55300 nM.

As to DAASSRITK, the IC50 in assay [12] (setting [36]) was at least 121000 nM.

On to EAVEDSRFW, for which the Kd in assay [13] worked out at 13 nM; in assay [8] (setting [34]) it was 22.2 nM.

Consider FTSVGKLVHQ, for which the Kd turned out to be 2390 nM in assay [8] (setting [37]) and 1360 nM in [9] (setting [37]).

With GSSIGKMFEA, the Kd in assay [8] (setting [37]) amounted to 853 nM; in assay [9] (setting [37]), 3000 nM.

The sequence HNFRAPAPV registered a Kd in assay [14] of at most 0.1 nM.

For the sequence HSGDSSCAF, the Kd in assay [15] (setting [38]) was at least 20000 nM; in assay [16] (setting [38]), 750 nM; in assay [17] (setting [38]), 252 nM.

Regarding IVYLIDCER, the Kd in [4] (setting [39]) was 939 nM; in assay [5] (setting [39]), at least 20000 nM; in assay [6] (source organism: Salmonella enterica subsp. arizonae), 88.3 nM.

For the sequence KAAVEDEEFW, the dissociation constant Kd in [9] (source organism: Dengue virus 3 Sri Lanka/1266/2000) stood at 11.4 nM.

As for KAMSTPFSL, the Kd came out at 84.9 nM in [15] (setting [40]), 15.3 nM in assay [16] (setting [40]) and 1.3 nM in assay [17] (setting [40]).

With KLNKFISPK, the Kd in assay [4] (setting [41]) was found to be 222 nM; in assay [6] (setting [41]), 26 nM.

For the sequence KSAHGSPTF, the figures for the Kd in assay [15] (setting [42]) and in [17] (setting [42]) were 1260 nM and 4.9 nM, respectively.

For KSYAQMWSL, the dissociation constant (Kd) in assay [8] (setting [43]) was found to be 5.58 nM; in [9] (setting [43]), 3.99 nM; in assay [18], 6.3 nM.

For KTSLCLMMML, in assay [8] (source organism: Dengue virus 3 China/80-2/1980), the Kd stood at 18.8 nM.

In the case of KTSVGVNMCT, the Kd in assay [8] (setting [44]) was found to be 8160 nM; in assay [9] (setting [44]), 1810 nM.

LINDQLIMK: the Kd in assay [4] (setting [45]) is at least 20000 nM; in assay [5] (setting [45]), 285 nM; in [6] (setting [46]), at least 20000 nM.

As for LSSTRVPNYN, the Kd in assay [8] (setting [47]) is 5970 nM; in assay [9] (setting [47]), 202 nM.

With MGFGHRIYK, the figures for the Kd in assay [4] (setting [48]), in assay [5] (setting [48]) and in [6] (source organism: Dictyostelium discoideum) were 3.7 nM, 3.2 nM and 1.43 nM, respectively.

As for MTMPLSCTK, the dissociation constant (Kd) in [4] (setting [45]) is 622 nM; in assay [5] (setting [45]) it was 2.3 nM; in [6] (setting [46]) it was 671 nM.

NPLPNQDND: the IC50 in assay [12] (setting [36]) is at least 163000 nM.

As to NSSVNVSLTA, the Kd in assay [8] (setting [34]) was 433 nM; in assay [9] (setting [34]), 10 nM.

Consider NTIAGVAGL, for which the IC50 in [11] is 32000 nM; in [12] (setting [35]) it was at least 144000 nM.

On to RIGGVLIFR, for which the Kd in assay [19] (setting [40]) is at least 5000 nM; in assay [20], at least 20000 nM; in assay [1] (setting [40]), at least 20000 nM; in assay [21] (setting [40]), at least 20000 nM; in [22] (setting [40]) it was 11 nM; in assay [15] (setting [40]), at least 20000 nM. The Kd was at least 20000 nM in assay [23] (setting [40]); at least 20000 nM in assay [24]; at least 20000 nM in assay [25] (setting [40]); at least 20000 nM in assay [26] (setting [40]); at least 20000 nM in assay [27] (setting [40]); 6000 nM in assay [16] (setting [40]). Also, the Kd in [28] (setting [40]) is at least 20000 nM; in assay [4] (setting [40]), 69.5 nM; in assay [3] (setting [40]), at least 20000 nM; in assay [5] (setting [40]), 32.5 nM.

For RLCYGGPWK, the Kd in assay [4] (setting [49]) was 517 nM; in assay [5] (setting [49]) it was 358 nM; in assay [6] (setting [49]) it was at least 20000 nM.

On to RLSAAIGKAW, for which the Kd in assay [9] (setting [44]) amounted to 6.2 nM.

For RTLGSFTWF, the results for the Kd in assay [16] (setting [45]) and in assay [17] (setting [45]) were 13.8 nM and at most 1 nM, respectively.

With STYGISEDL, the values for the Kd in assay [15] (setting [50]), in assay [16] (setting [50]) and in assay [17] (setting [50]) were at least 20000 nM, at least 20000 nM and 256 nM, respectively.

With TASGKLVTQW, the results for the dissociation constant (Kd) in assay [8] (setting [47]) and in [9] (setting [47]) were 1090 nM and 22.6 nM, respectively.

As to TWSIHAKHEW, the figures for the Kd in [29], in assay [9] (setting [34]) and in assay [30] were 39.9 nM, 14.8 nM and 1950 nM, respectively.

WSSFKKNGAI: the Kd in assay [8] (setting [37]) was 1020 nM; in assay [9] (setting [37]), 5310 nM.

For the sequence YERGNIIIF, the Kd in assay [19] (setting [51]) is at least 20000 nM; in assay [31], at least 20000 nM; in assay [1] (setting [51]), at least 20000 nM; in assay [21] (setting [51]), 31.9 nM; in assay [22] (setting [51]), at least 20000 nM; in [15] (setting [51]) it was at least 20000 nM. The Kd in [23] (setting [51]) was at least 20000 nM; in assay [25] (setting [51]), at least 20000 nM; in assay [26] (setting [51]) it was at least 20000 nM; in [27] (setting [51]) it was 154 nM; in [16] (setting [51]) it was at least 20000 nM; in assay [28] (setting [51]), at least 20000 nM. Besides, the equilibrium dissociation constant (Kd) in assay [17] (setting [51]), in assay [3] (setting [51]) and in assay [5] (setting [51]) was at least 20000 nM in each case.
